# Source: publication PMC2773364
# B1: recombinant OcpA (Aspergillus oryzae RIB40) (protein)
# chain: YVNNSGICETTKGVNQYSGYLSVGENQNMFFWFFESRNNPQQAPLSAWFNGGPGCSSMIGLFQEHGPCHFVNGEDTPSLNEHSWNNFANMLYIDQPIGVGFSYGDNPVNSTWTAAPYVWKFLQAFYEHFPQYESRDFGIFTESYGGHYGPGFASYILDQNNAIEAGSQKGEKVNLVALGINNGMFDSTLQEKAYITFAYNNTYRQLIDESLKDKLLEAYESECLPAVQKCQQTQTNEDCQNAGSVCGESVENPIMQAGGDFDVYDVREPSNDPNPPETYSKYIARPDIMKAIGARSDYQECADAPGQKFGATGDEYRSTLPDLSEVIKAGVNVLVWAGTADYICNVDGSIAVANAVDFSGHDEFQGKALEAYKVNGKEVGQFKSVDNFHLLTVYDAGHEVPYYQPETALQAFTQILQKKPLSST
# B2: recombinant CpI (Aspergillus oryzae RIB40) (protein)
# chain: LPGSTPASVGRRQLPKNPTGVKTLTTANNVTIRYKEPGAEGVCETTPGVKSYSGYVDTSPESHTFFWFFEARHNPETAPITLWLNGGPGSDSLIGLFEELGPCHVNSTFDDYINPHSWNEVSNLLFLSQPLGVGFSYSDTVDGSINPVTGVVENSSFAGVQGRYPTIDATLIDTTNLAAEAAWEILQGFLSGLPSLDSRVQSKDFSLWTESYGGHYGPAFFNHFYEQNERIANGSVNGVQLNFNSLGIINGIIDEAIQAPYYPEFAVNNTYGIKAVNETVYNYMKFANQMPNGCQDLISTCKQTNRTALADYALCAEATNMCRDNVEGPYYAFAGRGVYDIRHPYDDPTPPSYYNKFLAKDSVMDAIGVNINYTQSNNDVYYAFQQTGDFVWPNFIEDLEEILALPVRVSLIYGDADYICNWFGGQAVSLAANYSQAAQFRSAGYTPLKVNGVEYGETREYGNFSFTRVYEAGHEVPYYQPIASLQLFNRTIFGWDIAEGQKKIWPSYKTNGTATATHTQSSVPLPTATSMSSVGMA
# Legend:
# [1] = substrate: CC(C)C[C@H](NC(=O)OCc1ccccc1)C(=O)N[C@@H](Cc1ccc(O)cc1)C(=O)O; test: purified protein; conditions: 50 mM acetate buffer, pH 3.7, 30°C
# [2] = substrate: O=C(O)CC[C@H](NC(=O)OCc1ccccc1)C(=O)N[C@@H](Cc1ccc(O)cc1)C(=O)O; test: purified protein; conditions: 50 mM acetate buffer, pH 3.7, 30°C
Protein,Km [1] [mM],kcat [1] [s⁻¹],kcat/Km [1] [M⁻¹ s⁻¹],Km [2] [mM],kcat [2] [s⁻¹],kcat/Km [2] [M⁻¹ s⁻¹]
B1,0.41,18,43900,0.26,22.7,85900
B2,0.34,30.3,89800,0.27,20.1,73200
